Experimental data as given in patent US20260356955 (published 2026).

T1: cynomolgus KLRB1 on CHO-K1 (cynomolgus)
T1 chain: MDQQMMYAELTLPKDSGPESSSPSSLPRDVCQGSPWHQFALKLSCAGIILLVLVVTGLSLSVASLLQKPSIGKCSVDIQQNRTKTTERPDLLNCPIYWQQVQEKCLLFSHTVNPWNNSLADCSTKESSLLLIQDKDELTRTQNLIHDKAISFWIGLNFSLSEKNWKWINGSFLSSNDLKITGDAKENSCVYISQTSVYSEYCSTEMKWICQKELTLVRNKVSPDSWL


Key:
human KLRB1 ECD [1] = biological target: human KLRB1 ECD (human); test: SPR
human KLRB1 on CHO-K1 = human KLRB1 on CHO-K1 (human); test: FACS
[2] = biological target: T1, cynomolgus KLRB1 on CHO-K1; test: FACS
human KLRB1 ECD [3] = biological target: human KLRB1 ECD (human); test: ELISA

Sequence of human KLRB1 ECD (human) (chain, as listed by the source): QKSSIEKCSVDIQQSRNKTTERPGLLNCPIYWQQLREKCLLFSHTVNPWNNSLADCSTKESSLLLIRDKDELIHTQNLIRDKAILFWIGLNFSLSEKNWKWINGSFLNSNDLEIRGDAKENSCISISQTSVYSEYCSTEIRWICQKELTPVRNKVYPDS
Sequence of human KLRB1 on CHO-K1 (human) (chain, as listed by the source): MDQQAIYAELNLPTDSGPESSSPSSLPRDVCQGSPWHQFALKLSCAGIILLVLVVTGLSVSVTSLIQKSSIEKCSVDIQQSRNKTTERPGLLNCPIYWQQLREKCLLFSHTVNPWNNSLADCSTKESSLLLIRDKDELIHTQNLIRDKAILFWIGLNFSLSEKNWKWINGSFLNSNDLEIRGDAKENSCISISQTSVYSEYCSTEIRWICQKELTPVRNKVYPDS

Row | Binder | Kd (human KLRB1 ECD [1]) [nM] | EC50 (human KLRB1 on CHO-K1) [nM] | binding result [2] | EC50 (human KLRB1 ECD [3]) [nM]
1 | Hu22F10G3-1.3 (antibody, V domains shown) VH: QVQLQESGPGLVKPSQTLSLTCTVSGYSLTSDFAWNWIRQHPGKGLEWIGDIRYSGSTDYNPSLKGRVTISVDTSKNQFSLKLSSVTAADTAVYYCARGGYYGYDEGYPMDYWGQGTLVTVSS VL: DIVMTQSPDSLAVSLGERATISCRASESVDVYGNSFMHWYQQKPGQPPKLLIYLAFNLKSGVPDRFSGSGSGTDFTLTISSLQAEDVAVYYCQQNNEDPFTFGQGTKLEIK | 0.177 | – | – | –
2 | Hu22F10G3-4.2 (antibody, V domains shown) VH: QVQLQESGPGLVKPSQTLSLTCTVSGYSLTSDFAWNWIRQFPGKGLEWMGDIRYSGSTDYNPSLKGRSTISRDTSKNQFFLKLSSVTAADTAVYYCARGGYYGYDEGYPMDYWGQGTLVTVSS VL: DIVMTQSPDSLAVSLGERATINCRASESVDVYGNSFMHWYQQKPGQPPKLLIYLAFNLKSGVPARFSGSGSGTDFTLTISSLQAEDVAVYYCQQNNEDPFTFGQGTKLEIK | 0.13 | – | – | –
3 | Hu22F10G3-2.4 (antibody, V domains shown) VH: QVQLQESGPGLVKPSQTLSLTCTVSGYSLTSDFAWNWIRQHPGKGLEWMGDIRYSGSTDYNPSLKGRVTISRDTSKNQFSLKLSSVTAADTAVYYCARGGYYGYDEGYPMDYWGQGTLVTVSS VL: DIVMTQSPDSLAVSLGERATISCRASESVDVYGNSFMHWYQQKPGQPPKLLIYLAFNLKSGVPARFSGSGSGTDFTLTISSLQAEDVATYYCQQNNEDPFTFGQGTKLEIK | 0.116 | – | – | –
4 | Hu22F10G3-2.2 (antibody, V domains shown) VH: QVQLQESGPGLVKPSQTLSLTCTVSGYSLTSDFAWNWIRQHPGKGLEWMGDIRYSGSTDYNPSLKGRVTISRDTSKNQFSLKLSSVTAADTAVYYCARGGYYGYDEGYPMDYWGQGTLVTVSS VL: DIVMTQSPDSLAVSLGERATINCRASESVDVYGNSFMHWYQQKPGQPPKLLIYLAFNLKSGVPARFSGSGSGTDFTLTISSLQAEDVAVYYCQQNNEDPFTFGQGTKLEIK | 0.135 | – | – | –
5 | Hu22F10G3-3.3 (antibody, V domains shown) VH: QVQLQESGPGLVKPSQTLSLTCTVSGYSLTSDFAWNWIRQHPGKGLEWMGDIRYSGSTDYNPSLKGRSTISRDTSKNQFSLKLSSVTAADTAVYYCARGGYYGYDEGYPMDYWGQGTLVTVSS VL: DIVMTQSPDSLAVSLGERATISCRASESVDVYGNSFMHWYQQKPGQPPKLLIYLAFNLKSGVPDRFSGSGSGTDFTLTISSLQAEDVAVYYCQQNNEDPFTFGQGTKLEIK | 0.18 | – | – | –
6 | Hu22F10G3-4.1 (antibody, V domains shown) VH: QVQLQESGPGLVKPSQTLSLTCTVSGYSLTSDFAWNWIRQFPGKGLEWMGDIRYSGSTDYNPSLKGRSTISRDTSKNQFFLKLSSVTAADTAVYYCARGGYYGYDEGYPMDYWGQGTLVTVSS VL: DIVMTQSPDSLAVSLGERATINCRASESVDVYGNSFMHWYQQKPGQPPKLLIYLAFNLKSGVPDRFSGSGSGTDFTLTISSLQAEDVAVYYCQQNNEDPFTFGQGTKLEIK | 0.105 | – | – | –
7 | Hu22F10G3-2.1 (antibody, V domains shown) VH: QVQLQESGPGLVKPSQTLSLTCTVSGYSLTSDFAWNWIRQHPGKGLEWMGDIRYSGSTDYNPSLKGRVTISRDTSKNQFSLKLSSVTAADTAVYYCARGGYYGYDEGYPMDYWGQGTLVTVSS VL: DIVMTQSPDSLAVSLGERATINCRASESVDVYGNSFMHWYQQKPGQPPKLLIYLAFNLKSGVPDRFSGSGSGTDFTLTISSLQAEDVAVYYCQQNNEDPFTFGQGTKLEIK | 0.104 | – | – | –
8 | Hu22F10G3-1.2 (antibody, V domains shown) VH: QVQLQESGPGLVKPSQTLSLTCTVSGYSLTSDFAWNWIRQHPGKGLEWIGDIRYSGSTDYNPSLKGRVTISVDTSKNQFSLKLSSVTAADTAVYYCARGGYYGYDEGYPMDYWGQGTLVTVSS VL: DIVMTQSPDSLAVSLGERATINCRASESVDVYGNSFMHWYQQKPGQPPKLLIYLAFNLKSGVPARFSGSGSGTDFTLTISSLQAEDVAVYYCQQNNEDPFTFGQGTKLEIK | 0.152 | – | – | –
9 | Hu22F10G3-3.1 (antibody, V domains shown) VH: QVQLQESGPGLVKPSQTLSLTCTVSGYSLTSDFAWNWIRQHPGKGLEWMGDIRYSGSTDYNPSLKGRSTISRDTSKNQFSLKLSSVTAADTAVYYCARGGYYGYDEGYPMDYWGQGTLVTVSS VL: DIVMTQSPDSLAVSLGERATINCRASESVDVYGNSFMHWYQQKPGQPPKLLIYLAFNLKSGVPDRFSGSGSGTDFTLTISSLQAEDVAVYYCQQNNEDPFTFGQGTKLEIK | 0.122 | – | – | –
10 | Hu22F10G3-4.4 (antibody, V domains shown) VH: QVQLQESGPGLVKPSQTLSLTCTVSGYSLTSDFAWNWIRQFPGKGLEWMGDIRYSGSTDYNPSLKGRSTISRDTSKNQFFLKLSSVTAADTAVYYCARGGYYGYDEGYPMDYWGQGTLVTVSS VL: DIVMTQSPDSLAVSLGERATISCRASESVDVYGNSFMHWYQQKPGQPPKLLIYLAFNLKSGVPARFSGSGSGTDFTLTISSLQAEDVATYYCQQNNEDPFTFGQGTKLEIK | 0.121 | – | – | –
11 | Hu22F10G3-3.2 (antibody, V domains shown) VH: QVQLQESGPGLVKPSQTLSLTCTVSGYSLTSDFAWNWIRQHPGKGLEWMGDIRYSGSTDYNPSLKGRSTISRDTSKNQFSLKLSSVTAADTAVYYCARGGYYGYDEGYPMDYWGQGTLVTVSS VL: DIVMTQSPDSLAVSLGERATINCRASESVDVYGNSFMHWYQQKPGQPPKLLIYLAFNLKSGVPARFSGSGSGTDFTLTISSLQAEDVAVYYCQQNNEDPFTFGQGTKLEIK | 0.189 | – | – | –
12 | Hu50A8F2-15 (antibody, V domains shown) VH: QVQLVQSGAEVKKPGASVKVSCKASGYTFIDYYINWVRQAPGQGLEWIGWIFPGSGHTKYNENFKGKVTLTVDTSTSTVYMELSSLRSEDTAVYFCARGDRSALGYFDYWGQGTTVTVSS VL: DIQLTQSPSSLSASVGDRVTITCTASSSVSSTYLHWYQQKPGKSPKLLIYSTSNLASGVPSRFSGSGSGTDYTLTISSLQPEDFATYYCHQYHRSPLTFGQGTKLEIK | – | 5.39 | no binding | 0.0148
13 | Hu50A8F2-10 (antibody, V domains shown) VH: QVQLVQSGAEVKKPGASVKVSCKASGYTFIDYYINWVRQAPGQGLEWMGWIFPGSGHTKYNENFKGKVTLTVDTSTSTVYMELSSLRSEDTAVYYCARGDRSALGYFDYWGQGTTVTVSS VL: DIQMTQSPSSLSASVGDRVTITCTASSSVSSTYLHWYQQKPGKAPKLLIYSTSNLASGVPSRFSGSGSGTDYTLTISSLQPEDFATYYCHQYHRSPLTFGQGTKLEIK | – | 5.67 | no binding | 0.0187
14 | Hu50A8F2-16 (antibody, V domains shown) VH: QVQLVQSGAEVKKPGASVKVSCKASGYTFIDYYINWVRQAPGQGLEWIGWIFPGSGHTKYNENFKGKVTLTVDTSTSTVYMELSSLRSEDTAVYFCARGDRSALGYFDYWGQGTTVTVSS VL: DIQLTQSPSSLSASVGDRVTITCTASSSVSSTYLHWYQQKPGKSPKLLIYSTSNLASGVPSRFSGSGSGTDYTLTISSLQPEDAATYYCHQYHRSPLTFGQGTKLEIK | – | 5.27 | no binding | 0.0103
15 | Hu50A8F2-13 (antibody, V domains shown) VH: QVQLVQSGAEVKKPGASVKVSCKASGYTFIDYYINWVRQAPGQGLEWIGWIFPGSGHTKYNENFKGKVTLTVDTSTSTVYMELSSLRSEDTAVYFCARGDRSALGYFDYWGQGTTVTVSS VL: DIQMTQSPSSLSASVGDRVTITCTASSSVSSTYLHWYQQKPGKAPKLLIYSTSNLASGVPSRFSGSGSGTDFTLTISSLQPEDFATYYCHQYHRSPLTFGQGTKLEIK | – | 5.06 | no binding | 0.0104
